Measurements reported in patent US20130336947.

Legend:
[1] = tested on: ZF11xHunt-Kox-1 (Artificial); assay: cell_activity
[2] = tested on: ZF6xHunt-Kox-1 (Artificial); assay: cell_activity; settings: htt mRNA (up to 2.5-fold); protein up to 2-fold; STHdh Q111/Q111, 20 days
ZF6xHunt-Kox-1 (Artificial), sequence (chain, as listed by the source): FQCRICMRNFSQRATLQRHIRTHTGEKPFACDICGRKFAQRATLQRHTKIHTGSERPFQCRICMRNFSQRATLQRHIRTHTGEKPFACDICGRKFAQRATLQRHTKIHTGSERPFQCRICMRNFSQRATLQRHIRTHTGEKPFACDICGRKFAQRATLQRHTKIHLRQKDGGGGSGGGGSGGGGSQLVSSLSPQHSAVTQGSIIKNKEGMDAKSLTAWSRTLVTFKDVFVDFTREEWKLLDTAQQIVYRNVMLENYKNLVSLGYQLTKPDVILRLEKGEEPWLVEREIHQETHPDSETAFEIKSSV

ZF11xHunt-Kox-1 (Artificial), sequence (chain, as listed by the source): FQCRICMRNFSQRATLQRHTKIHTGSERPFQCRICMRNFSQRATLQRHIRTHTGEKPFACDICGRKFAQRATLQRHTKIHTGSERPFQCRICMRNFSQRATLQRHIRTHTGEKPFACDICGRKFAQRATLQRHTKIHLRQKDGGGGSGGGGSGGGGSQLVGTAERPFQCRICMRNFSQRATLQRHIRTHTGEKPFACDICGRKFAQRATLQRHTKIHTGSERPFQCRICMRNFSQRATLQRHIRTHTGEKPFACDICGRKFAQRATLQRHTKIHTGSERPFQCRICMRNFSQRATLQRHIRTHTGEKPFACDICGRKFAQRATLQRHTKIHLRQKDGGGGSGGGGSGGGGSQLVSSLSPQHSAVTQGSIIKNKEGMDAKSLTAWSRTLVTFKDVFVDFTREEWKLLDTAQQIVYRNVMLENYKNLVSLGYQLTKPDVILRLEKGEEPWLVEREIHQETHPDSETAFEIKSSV

Substance	activity (% mRNA reduction) ([1]; AAV2/1 striatal delivery, R6/2 mice, week 6, average)	activity (% mRNA reduction) ([1]; protein reduced 95%, STHdh Q111/Q111, 20 days)	activity (fold repression) [2]
R6/2 mutant HTT transgene	> 45	–	–
STHdh Q111 mutant htt locus	–	80	< 2.5
